Assay results reported in patent US6123948.

Biological target: HPV-6 L2E7 fusion protein (encoded by plasmid pGW53: pelB leader, HPV-6 L2, HPV-6 E7, His Tag) (human papillomavirus type 6 (HPV-6), clinical isolate H26) (UniProt P06464)

Substance: draining (axillary) lymph node cells from B6CBA mice immunized with L2E7/Alum (cells without a defined receptor)
- incorporation of tritiated thymidine (in-vitro lymphoproliferative response) (stimulation index): 50
